Data published in paper PMC2244710, “The Gammaherpesvirus m2 Protein Manipulates the Fyn/Vav Pathway through a Multidocking Mechanism of Assembly” (PLoS ONE, 2008).
Square brackets hold non-standard residues; d marks the D form. Ends that are not written are not given here. * marks the point of attachment. Biotin = O=C1N[C@H]2[C@H](CS[C@H]2CCCCC(=O)*)N1; pY = N[C@@H](Cc1ccc(OP(=O)(O)O)cc1)C(=O)O

Biological target: T1, GST fusion of the SH2 domain of mouse Fyn (residues 145-247) (mouse, UniProt P39688 145-247)
T1 construct: SH2 domain of mouse Fyn, residues 145-247; Cloned into pGEX-6P-1; also called GST-SH2 (Fyn); SH2 domain of Fyn; source: Escherichia coli, IPTG induction, purified with glutathione-sepharose beads
Experiment: pull-down; 10 µg of biotinylated pY120 peptide incubated with increasing amounts of purified GST proteins overnight at 4°C; recovered with streptavidin-conjugated beads; anti-GST immunoblot
Details: both partners purified

T1 sequence (P39688 145-247): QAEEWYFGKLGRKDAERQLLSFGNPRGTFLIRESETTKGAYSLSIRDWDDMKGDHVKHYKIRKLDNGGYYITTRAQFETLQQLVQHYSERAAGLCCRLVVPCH

B1: N-terminal biotinylated, tyrosine phosphorylated M2 peptide incorporating Y120 (SPEENIpYETANSE) (peptide)
peptide: Biotin-SPEENI[pY]ETANSE
notes: region of M2 of MHV-68 incorporating Y120; numbers count on: the final spliced form of the protein; also called pY120 peptide; phosphorylated Y120 peptide; source: synthetic peptide, bought: Sigma
Does B1 bind?
Result: binds
